From patent US7485618B2, “FGF-5 supported and binding peptides” (Genencor International, Inc., priority 2003, dated 2009)

Molecular target: T1, FGF-5 (Homo sapiens, UniProt P12034)
T1 construct: host or cells: FGF-5 added exogenously to NR6R-3T3 murine fibroblasts
T1 sequence (P12034 21-268): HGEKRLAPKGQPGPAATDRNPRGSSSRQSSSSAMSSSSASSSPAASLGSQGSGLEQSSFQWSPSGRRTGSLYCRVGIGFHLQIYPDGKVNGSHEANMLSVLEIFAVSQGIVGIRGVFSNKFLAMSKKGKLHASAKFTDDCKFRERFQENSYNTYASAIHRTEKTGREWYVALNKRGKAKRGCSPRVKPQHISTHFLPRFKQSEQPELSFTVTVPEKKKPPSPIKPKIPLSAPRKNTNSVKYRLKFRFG
Test: BLA binding assay on FGF-5 coated plates, nitrocefin readout
Details: purified peptide-BLA fusions at 0.1 nM, bound to FGF-5
Procedure: This Example describes secondary screening methods used to analyze FGF-5 binding npeptides. Individual clones were picked and grown up in 5 ml LB+5 ppm CMP overnight at 37° C. The cell pastes were then treated with 125μ of B-PER reagent (Pierce) for 30 min with slow mixing. COSTAR plates (96-well) were coated with 0.1 μg (100 μl of 1 μg/ml) FGF-5, carrier-free (R&D Systems #237-F5/CF, Lot #GQ18304A) with gentle rocking at 4° C. overnight, followed by blocking with Superblock blocking buffer (Pierce) for several hours at room temperature. Then, 100 μl B-Per treated supernatant from individual clones from pGV02-L were added to the FGF-5 coated plates. After one hour, plates were washed six times with PBS, 0.05% TWEEN®-20 and 200 μl of nitrocefin assay buffer containing 0.1 mg/ml nitrocefin (Oxoid) was added to measure residual bound beta-lactamase activity, using Abs490/min. Control wells contained pCB04 (See, FIG. 1C) beta-lactamase as a control. […] These clones were sequenced, and the results are provided in Table 1, where the first column is the name of the peptide, the second column is the nucleotide sequence and the third column is the amino acid sequence of the peptide:
Cell pastes were harvested from the 200 ml cell cultures described in Example 6, by centrifugation at 3,000×g for 10 min. The pastes were then treated with 25 ml of B-PER reagent (Pierce) for 40 min with slow mixing. The extract was separated by centrifugation at 20,000 g for 20 min. BLA activity of all liquid fractions was assayed using nitrocefin, and the concentration of fusion proteins in each fraction was calculated assuming the same specific activity as the WT enzyme. Fusion proteins were purified by IMAC chromatography (See, FIG. 4). The imidazole-eluted BLA-active fractions were pooled and the purity was found better than 95% as checked by SDS-PAGE. (See, FIG. 5).
The binding (BLA assay) was repeated using different peptide concentrations to see a dose response. To verify specific binding, the assay was also done using an irrelevant target. The results are shown in FIG. 6 and in Table 2, below.

Percent Bound at 0.1 nM | Sequence
8% | CEEIWTMLC (synthesized FGF-5 binding peptide) [1A6, tested as BLA and BBI/BCE fusions]
5% | CHYLLTNYC (synthesized FGF-5 binding peptide) [2H9, tested as BLA fusion]
8% | CRIHLAHKC (synthesized FGF-5 binding peptide) [2H10, tested as BLA fusion]
7% | CLTVLWTTC (synthesized FGF-5 binding peptide) [2E2, tested as BLA and BBI/BCE fusions]
